Data set [1] concerns the target T1, ADAMTS5 (UniProt Q9UNA0 Q9UNA0:262-622).
T1 sequence: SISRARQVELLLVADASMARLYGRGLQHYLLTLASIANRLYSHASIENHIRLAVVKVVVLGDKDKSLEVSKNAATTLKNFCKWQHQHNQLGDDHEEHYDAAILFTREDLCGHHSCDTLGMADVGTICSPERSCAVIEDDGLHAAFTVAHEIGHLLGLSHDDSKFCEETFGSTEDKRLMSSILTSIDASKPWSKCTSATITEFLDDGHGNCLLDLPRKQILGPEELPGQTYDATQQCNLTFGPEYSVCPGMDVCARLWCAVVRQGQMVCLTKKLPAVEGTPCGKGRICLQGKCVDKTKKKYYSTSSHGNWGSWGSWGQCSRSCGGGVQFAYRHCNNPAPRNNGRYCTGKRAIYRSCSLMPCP
Kind of data set: inhibition; 30 nM. To be noted: tags: R&D Systems. How it is done:
(§1) Whether an aptamer having the nucleotide sequence shown in SEQ ID NO: 1 inhibits the enzyme activity of ADAMTS5 was evaluated by the following method. As a substrate of ADAMTS5, the G1-IGD-G2 domain of aggrecan (manufactured by R&D systems) was used. ADAMTS5 specifically cleaves in between the 392nd glutamic acid and the 393rd alanine in the G1-IGD-G2 domain and produces two fragments. These fragments have faster electrophoretic mobility than uncleaved G1-IGD-G2. Thus, the enzyme activity of ADAMTS5 can be measured by quantifying the band intensity of G1-IGD-G2 by SDS-PAGE electrophoresis. The assay was performed in a solution A buffer with a reaction mixture volume of 10 μL. First, a mixture (10 μL) of a nucleic acid and ADAMTS5 was prepared and incubated at 25° C. for 15 min. To a substrate solution (5 μL) diluted with solution A was added a mixture (5 μL) of the nucleic acid and ADAMTS5 to start the enzyme reaction. The final concentration of ADAMTS5 in the reaction solution was 5 nM, and the final substrate concentration was 50 μg/mL. The reaction solution was incubated at 37° C. for 2 hr, 2 μL of solution D was added, and the mixture was heated at 95° C. for 2 min to stop the enzyme reaction of ADAMTS5. Solution D contains 0.25 M tris (pH 6.8), 10% SDS, 50% glycerol, 0.25% bromo phenolblue, and 20% 2-mercaptoethanol. The heat-treated reaction solution was electrophoresed by 7.5% SDS-PAGE and stained with SYPRO Orange (manufactured by Sigma-Aldrich). The staining was performed according to the manual of Sigma-Aldrich and detected using STORM840 manufactured by GE Healthcare. […] The amount of uncleaved substrate in each reaction solution was quantified from the band intensity and the standard curve. The substrate cleavage efficiency of ADAMTS5 under these reaction conditions was 80-100%. The inhibition rate of the test substance was calculated using the following equation.
Whether these aptamers inhibit the enzyme activity of ADAMTS5 was tested by a method similar to that in Example 1. The final concentration of the nucleic acid was fixed to 30 nM in the test.

Data set [2] addresses T1, ADAMTS5. Kind of data set: SPR; RU ratio <10%, same level as 40N; 300 mM NaCl, Ca, Mg. Conditions: tags: R&D Systems. How it is done:
The binding activity of aptamers having the nucleotide sequences shown in SEQ ID NOs: 1 and 2 to ADAMTS5 was evaluated by the surface plasmon resonance method. Biacore T100 manufactured by GE Healthcare was used for the measurement. The SA chip was used as the sensor chip, which had streptavidin immobilized thereon. About 800 RU of a 16-nucleotide Poly dT with biotin at the 5′-terminal was bound on the chip. […] ADAMTS5 for analyte was prepared at 0.1 μM, and injected at a flow rate so of 30 μL/min for 60 sec. As the running buffer, solution C was used. The solution C is a mixed solution of 300 mM sodium chloride, 5.4 mM potassium chloride, 1.8 mM calcium chloride, 0.8 mM magnesium chloride, 20 mM tris (pH 7.6), and 0.05% Tween20.
SEQ ID NO: 2 has a sequence with one base deletion from the continuous 4 G bases in the consensus sequence, and it was shown from the measurement results of the binding activity that the continuous 4 G bases in the consensus sequence are important for the activity of aptamers. Sensorgram showing the binding of an aptamer having the nucleotide sequence shown in SEQ ID NO: 1 to ADAMTS5 is presented in FIG. 2. […]

For data set [3], the target named is T1, ADAMTS5. Kind of data set: inhibition; 10 nM. To be noted: tags: R&D Systems. How it is done:
as §1, with “The substrate cleavage efficiency of ADAMTS5 under these reaction conditions was 80-100%.” left out
The nucleic acids of SEQ ID NOs: 10-12 were all produced by chemical synthesis. Whether aptamers having the nucleotide sequences shown by these nucleic acids inhibit the enzyme activity of ADAMTS5 was determined by a method similar to that in Example 1.

The target of data set [4] is T1, ADAMTS5. Kind of data set: inhibition; SDS-PAGE aggrecan cleavage, 5 nM enzyme. To be noted: tags: R&D Systems. How it is done:
as §1, with “The reaction solution was incubated at 37° C. for 2 hr, 2 μL of solution D was added, and the mixture was heated at 95° C. for 2 min to stop the enzyme reaction of ADAMTS5. Solution D contains 0.25 M tris (pH 6.8), 10% SDS, 50% glycerol, 0.25% bromo phenolblue, and 20% 2-mercaptoethanol. The heat-treated reaction solution was electrophoresed by 7.5% SDS-PAGE and stained with SYPRO Orange (manufactured by Sigma-Aldrich).” left out, “The substrate cleavage efficiency of ADAMTS5 under these reaction conditions was 80-100%.” left out, “equation. […]” for “equation.”

Data set [5] has as its target T1, ADAMTS5. Kind of data set: inhibition; SDS-PAGE aggrecan cleavage; 81% inhibition in Table 9 method 1. To be noted: tags: R&D Systems. Here is the method: (§2) As a substrate of ADAMTS5, the G1-IGD-G2 domain of aggrecan (manufactured by R&D systems) was used. ADAMTS5 specifically cleaves in between the 392nd glutamic acid and the 393rd alanine in the G1-IGD-G2 domain and produces two fragments. These fragments have faster electrophoretic mobility than uncleaved G1-IGD-G2. Thus, the enzyme activity of ADAMTS5 can be measured by quantifying the band intensity of G1-IGD-G2 by SDS-PAGE electrophoresis. The assay was performed in a solution A buffer with a reaction mixture volume of 10 μL. First, a mixture (10 μL) of a nucleic acid and ADAMTS5 was prepared and incubated at 25° C. for 15 min. […] The staining was performed according to the manual of Sigma-Aldrich and detected using STORM840 manufactured by GE Healthcare. […] The amount of uncleaved substrate in each reaction solution was quantified from the band intensity and the standard curve. […] The inhibition rate of the test substance was calculated using the following equation.
The aptamer having the sequence shown in SEQ ID NO: 26 was prepared by transcription by T7RNA polymerase, and the aptamers having the sequences shown in SEQ ID NOs: 27-29 were prepared by chemical synthesis. Whether these aptamers inhibit the enzyme activity of ADAMTS5 was evaluated by a method similar to that in Example 1. In the Table, “n.d.” means not determined.

The target of data set [6] is T1, ADAMTS5. Kind of data set: inhibition; 5 nM ADAMTS5, aggrecan G1-IGD-G2 cleavage, 145 mM NaCl, Ca, Mg, 37 C. Conditions: tags: R&D Systems; stem-internal loop-stem-loop (MFOLD). How it is done: as §2, with “Whether an aptamer having the nucleotide sequence shown in SEQ ID NO: 1 inhibits the enzyme activity of ADAMTS5 was evaluated by the following method. As” for “As”, “min. To a substrate solution (5 μL) diluted with solution A was added a mixture (5 μL) of the nucleic acid and ADAMTS5 to start the enzyme reaction.” for “min.”
The concentration of an inhibitor necessary for inhibiting 50% of the enzyme activity (IC₅₀) was determined. […]

For data set [7], the target named is T1, ADAMTS5. Kind of data set: inhibition; 10 nM aptamer. Conditions: tags: R&D Systems. How it is done:
as §1, with “The substrate cleavage efficiency of ADAMTS5 under these reaction conditions was 80-100%.” left out
The binding activity and enzyme inhibitory activity of aptamers having nucleotide sequences shown in SEQ ID NOs: 16-25 to ADAMTS5 were measured. The binding activity was evaluated by the surface plasmon resonance method. […]

Data set [8] deals with T1, ADAMTS5. Kind of data set: inhibition; 30 nM. To be noted: tags: R&D Systems. Here is the method:
as §1
The nucleic acids shown in SEQ ID NOs: 3(1)-3(16) were all produced by chemical synthesis. Whether these nucleic acids inhibit the enzyme activity of ADAMTS5 was determined by a method similar to that in Example 1.
The source holds these as a separate data set.

From patent publication US20210246451, “APTAMER FOR ADAMTS5 AND USE FOR APTAMER FOR ADAMTS5” (RIBOMIC INC., published 2021) come the findings set out here.

As usually defined, the IC50 is the concentration that inhibits the measured activity by half.

On to GGCUUGGGGCCUCCACAGCGCUCGCUUGGACUAAACCAAGCC (ssRNA, 2'-F pyrimidines) [SEQ ID NO: 5], for which the activity with ADAMTS5 [1] turned out to be 27 % inhibition.

B1: SEQ ID NO: 2 (ssRNA)
RNA: GGGUACGACCGUCGUACGAUUGGGCCUCCACAGCUGCUCAGCUUGGACUAAACCAAUAAGAGACUAACGCCUAGCGUAC
modifications: 2'-F pyrimidines; 3' A16 tail for SPR
On to B1, for which the binding result in the data set with ADAMTS5 [2] is given as “no binding”.

AUUGGGGCCUCCACAGCUGCUCAGCUUGGACUAAACCAAU (ssRNA, 2'-OMe at 1-5,15-26,28,34-40; 2'-F other pyrimidines) [SEQ ID NO: 10] showed an activity in the data set with ADAMTS5 [3] of 65 % inhibition. The same measure, in the same setting: under UUGGGGCCUCCACAGCGCUCGCUUGGACUAAACCAA (ssRNA, 2'-OMe at 1-4,14-23,25,31-36; 2'-F other pyrimidines) [SEQ ID NO: 12] stands 71.1 % inhibition. In turn, UAUAGGGGCCUCCACAGCGUAAGCUUGGACUUAAACCAUA (ssRNA, 2'-OMe at 1-3,5,6,16-19,23-27,34-40; 2'-F other pyrimidines) [SEQ ID NO: 27] gave a half-maximal inhibitory concentration (IC50) with ADAMTS5 [4] of 5.9 nM. In the data set with ADAMTS5 [5], CGUAGGGGCCUCCACAGCGUAAGCUUGGACUUAAACCACG (ssRNA, 2'-OMe at 1-3,5,6,16-19,23-27,34-40; 2'-F other pyrimidines) [SEQ ID NO: 28] registered an IC50 of 3.4 nM.

B2: SEQ ID NO: 1 (ssRNA)
RNA: GGGUACGACCGUCGUACGAUUGGGGCCUCCACAGCUGCUCAGCUUGGACUAAACCAAUAAGAGACUAACGCCUAGCGUAC
modifications: 2'-F pyrimidines, 2'-OH purines; 3' A16 tail for SPR
Consider B2, for which the concentration for half-maximal inhibition (IC50) in the data set with ADAMTS5 [6] worked out at 16.8 nM. Molecule GGAUUGGGGCCUCCACAGCGUCGCUUGGACUAAACCAAUCC (ssRNA, 2'-F pyrimidines) [SEQ ID NO: 9] yielded an activity in the data set with ADAMTS5 [1] of 5.9 % inhibition. On the same count and under the same terms, under GGCUUGGGGCCUCCACAGCUGUCAGCUUGGACUAAACCAAGCC (ssRNA, 2'-F pyrimidines) [SEQ ID NO: 6] stands 33.7 % inhibition.

B3: SEQ ID NO: 22 (ssRNA)
RNA: GGGACAUGCGUAACUGCAUAGGGGCCUCCACAGCUAUUCAGCUUGGACACAAACCAUGCAGUCCAGAUCGAGCA
modifications: 2'-F at all pyrimidines
Molecule B3 gave an activity with ADAMTS5 [7] of 14.8 % inhibition.

B4: SEQ ID NO: 23 (ssRNA)
RNA: GGGACAUGCGUAACUGUAUAGGGGCCUCCACAGCUGAAAAGCUUGGACUCAAACCAUACAGUCCAGAUCGAGCA
modifications: 2'-F at all pyrimidines
In the data set with ADAMTS5 [7], B4 came in with an activity of 14.5 % inhibition. For AUUGGGGCCUCCACAGCGCUCGCUUGGACUAAACCAAU (ssRNA, 2'-OMe at 1-5,15-24,26,32-38; 2'-F other pyrimidines) [SEQ ID NO: 11], the activity with ADAMTS5 [3] turned out to be 59.8 % inhibition.

GGAUUGGGGCCUCCACAGCUGCUCAGCUUGGACUAAACCAAUCC (ssRNA, 2'-OMe at 1-3,42-44; 2'-F other pyrimidines) [3(1)] had an activity in the data set with ADAMTS5 [8] of 49.8 % inhibition.

Turning to GGAUUGGGGCCUCCACAGCUGCUCAGCUUGGACUAAACCAAUCC (ssRNA, 2'-OMe at 18-20,25-27; 2'-F other pyrimidines) [3(3)], the activity in the data set with ADAMTS5 [8] worked out at 48.6 % inhibition. The same measure, in the same setting: under GGAUUGGGGCCUCCACAGCUGCUCAGCUUGGACUAAACCAAUCC (ssRNA, 2'-OMe at A36; 2'-F pyrimidines) [3(4)] stands 53.1 % inhibition; under GGAUUGGGGCCUCCACAGCUGCUCAGCUUGGACUAAACCAAUCC (ssRNA, 2'-OMe at 4-6,39-41; 2'-F other pyrimidines) [3(2)], 53.6 % inhibition.

B5: SEQ ID NO: 24 (ssRNA)
RNA: GGGACAUGCGUAACUUGAUAGGGGCCUCCACAGCCGGUAGGCUUGGACUCAAACCAUCAAGUCCAGAUCGAGCA
modifications: 2'-F at all pyrimidines
Molecule B5 yielded an activity with ADAMTS5 [7] of 20.2 % inhibition.
